In the DeepSol protein solubility set:

Experiment: soluble on expression in E. coli; label from the status in PepcDB or PDB records

Question: With “MKEKTPFKNEKEFHDMVKKTKKGTFSGWYIVNPENNSVEFSGNFNRQFKLNKPVIPVNTEYVTRKEFNEYKDSNDQRLIKIETTLAAQGEQIRIQGEQIKELQIEQKAQSETLKLILQTLQKMSDRLDKMDVRLDKLESK” as the sequence, how does the “soluble on expression in E. coli” value read?
Answer: soluble

Question: For “MKERMQKTSAQAHDFPQRARTESEWYEGVQTFMWMTEDNIVEVPFDKEHLLEIILSPSNLNKAYKAVVRNNGSGGIDKMSCEQLLSWLKANKDELIISLQSGTYRPNPVRRVEIPKDNGKKRLLGIPTVVDRLVQQAINQVLTLIYERQFSKTSYGFRPQRGCHDALRKAQKIVSEGYIYVVDLDLERFFDTVSHSKLIEILSRTIKDGRVISLIHKYLRSGVINRGMFEMSTEGTPQGGPLSPLLSNIMLNELDKELERRGHPFVRYADDAMIFCKSKRAAKRVRESITLFIEGKLFLKVNHEKTVVSYVKGVKFLGYSFYVKKGDCILLVHSKSKNKMKSKLKELTSRSNGWGYEKRKQKLKDYIRGWIAYFCLAQMKRLCIETDEWLRRRIRMCIWKSWKNAKTRVANLKKCGVSEWQAYQWGNTRLGYWRVSNSPIVTFVMSNDKLRKAGYMEFMDCYLKWCPK”, which “soluble on expression in E. coli” value is on record?
Answer: not soluble

Question: Which “soluble on expression in E. coli” value does the source give for “MKERTIQPVNNGLNGNITIPGDKSISHRAVMFGAIAEGTTTIKGFLPGADCLSTISCFKEMGVDIVQNGDEVTVVGKGLEGLQEPKAVLDVGNSGTTIRLMSGILANTPFLSCVQGDTSIAKRPMKRVTNPLKQMGANIDGREEGTFTPLTIRGGDLKAIEYTSPVASAQVKSAILLAGLRAEGVTAVTEPHISRDHTERMLEAFGVKVTREGKTVKLAGGQKLTATDVQVPGDVSSAAFFLVAGAIIPNSKLVLENVGMNPTRTGIIDVLEKMGATFTVEPINEGASEPAANITIETSSLKGIEIGGDIIPRLIDEIPVIALAATQAEGITVIKDAHELKVKETNRIDTVVAELTKLGARIEATDDRMIIYGKSALKGNTVNSYGDHRIGMMLAIAGCIAEGKTIIEDAEAVGVSYPTFFEELQKLAK” here?
Answer: not soluble

Question: Which “soluble on expression in E. coli” value does the source give for “MKEVLFISEMERGRAEIESRVSNIKTTQDFGYREKIKEKKDASTAYAACISELLLEEKVKKIAVAYDFPIFYSNYLTEAGFTIVPVKSPFRKMRSVKGPEEIEAIKYAQMAGEKAMEAAITLIADAEEKDGVLYFEGQVLTGAKVNSVIDHTLLDFGCEAEETIVSCGEDTSNPHGTTEGPLRANAPIILDIFPRSKKKRYFADMTRTVLRGEASEKLKEMYETVLVAQQKALEMVKPGIHSSEIHRAVCDLFEARGYHTYRSGSKAGFTHSTGHGVGLDIHELPSVGESGVLLETGNVITIEPGLYYPGIGGIRLEDMVLVTKTGYENFTGLEKKFVLKSFYNLEHHHHHH” here?
Answer: not soluble

Question: With “MKEVQETAEKIRTMEIRGAGRIAKAAAEVIRDYAAGLEAASIEEFAAGITEVSNYLISTRPTAVSLPNAVKLSSRYSSDNVENARKEVINNANLFIERADKALGRIGKIGAGRVQDGDVIMTHCNSHAALSIITTAFEDGKNISVIATESRPRRQGLLTVRRLNGFGIPTTLIVDSAVRYYMKDVDKVIVGADAIAANGALVNKIGTSQLALAAHEARKSFMVAAETFKFSPSTILGIPIEIEERSTDEVVDPSVLAELPHVQVKNPAFDFTPSEYIDMIVTDIGIIPPAMAYIVIKEHLGWEFEEIAAALEHHHHHH” as the sequence, how does the “soluble on expression in E. coli” value read?
Answer: not soluble

Question: For “MKEYRIDDLAREARVSVRNVRVYQDRGLLPPPRKQGRTGWYNESHLARLHLIGRMLDRGYTFATISELLTAAHYGLQVKDVLETDDPGSRWKKRRRAARLTIAELKRMFGAQTTEANIAKGTELGVLVPAGDDYSVNDPRLVEAAQVLVDAGIPLEAVLEQTAAVRRDLSDVAARFVAVVADRYLAAEGEPLELDEAKVSEIARLVDQMRPLAHDAVQSLFEEAMEEQISKALERAARQLGETPGPATSTDTNRAS”, which “soluble on expression in E. coli” value is on record?
Answer: not soluble

Question: For “MKFFSAAAFVAALVASGNACIGGGAGGAGGCCPPAQPGCGNPCQGAGPQYAAAPPPPPQYAAAPQGGAYPTAGK”, which “soluble on expression in E. coli” value is on record?
Answer: not soluble

Question: For “MKFKAVFISDTHLGTKDSKASLLLEFIKEIETKELYLVGDIIDGWSLKRKWIWLQPHSDVIQKILKAARKGVRVTYILGNHDEFIRPFLPLALGDHIRVVDEATYKAKNKKRYKIVHGDLYDSITMTKKWLAILGDNGYQFLLRLNDPINTLRQRLGFRRYWSFSQFIKDHVKQAVAYISDFEKILVAHAREEKFDGIICGHIHKAEIRDIEGITYMNCGDWVESCTALVETLEGEFKIIRWLDER”, which “soluble on expression in E. coli” value is on record?
Answer: not soluble

Question: For “MKFLITGGAGFIGSNLAFALQERYPEAKIYVLDNFSSGHFKNLIGFKGQVITGDISDPSLWDYVRKNFHFDVIFHEAAITDTTVEDQYFMMKTNADSFRYILDLAVEWNAKVIYASSAGVYGNSPPPMREDKGLEPENIYGFSKLMMDHIAMDYMERYPEMNIVGLRYFNVYGPREDYKGKTASMIYQLAVKMIKGERPRLFKWGEQRRDFVYIKDVIKANLLALEKNVSGIFNVGTGRARSFNEIVSILNKELGTNYEIEYFDCPYDFYQKFTEADLTKIREALGYEPEYSLEEGIKDYLPYIIKRVKK”, which “soluble on expression in E. coli” value is on record?
Answer: soluble

Question: With “MKFLLLLFPVLLLAKSPEKRSKVGIDEDNFLQLLEVEIARTLRSELSSDDDLQNLEGSSDSPEDDYLKKYDLILSSSTTSPKPITTTETTTRSTTTTTTTTTTTAAPSTTTSTVKITPKPLRSTPQCVPEKDCYKDSECPSGKCFGSELGLCDCNACITNKKCSSDLDCGGLRNGCDSNGNCDCVNAFHSHGYKLFVKVLLTFCHQTKCTKTSDNCYGLPCRVGKCKCFVGSLSVVTMCSRVLFVLLSTFTVLAGASVTCDLTQKPSTWAQVHAKNIFFNAYEPDNYFSLNGFCVNNDFMSHTLTYSSHVKLADSSVKVKTDVALNTNFDASLSNCGKDVSQVQWCQSHCQDKTLENVIVSSAVINGSLPLALAQQVFSTIGSPNDTSIASMQVDLNSQGVRIDYDYYDDFNFCSVYVKVKRPSMFPYALFITVQKIVGV” as the sequence, how does the “soluble on expression in E. coli” value read?
Answer: not soluble

Question: For “MKFLTTNFLKCSVKACDTSNDNFPLQYDGSKCQLVQDESIEFNPEFLLNIVDRVDWPAVLTVAAELGNNALPPTKPSFPSSIQELTDDDMAILNDLHTLLLQTSIAEGEMKCRNCGHIYYIKNGIPNLLLPPHLV”, which “soluble on expression in E. coli” value is on record?
Answer: not soluble

Question: With “MKFMQYTEKVMQHFMNPHNVGVIENPDGYGKVGNPSCGDIMEIFIKVDNNIISDVKFRTFGCASAIASSSISTDMIIGKTVEEALKLTNKQVVDELGGLPAVKMHCSVLAEEAIKMAIEDYISKRDGKLEHHHHHH” as the sequence, how does the “soluble on expression in E. coli” value read?
Answer: soluble

Question: With “MKFRGNFVCQPRAGPAESRPTRPFTPRPSATGSLFMSNQHFVSPDLIRQGFSRAMSDMYREEVPLYGALMELVAEVNAQVLERQPALARHLQSSGELQRLDLERHGAIRVGSAAELATLARLFAVMGMQPVGYYDLTPAGVPVHSTAFRAVHEAALQVSPFRVFTSLLRLELIDNPELRSFAEQVLARRQIFTPQVLELIQQAEAAGGLDAEDAERFIRQALETFRWHHHATVTAAQYASLSAQHRLIADVVAFKGPHINHLTPRTLDIDEVQRLMPARGITPKAVIEGPPRRECPILLRQTSFKALEESVAFTDQAQSQGSHSARFGEIEQRGAALTPKGRELYDRLLNAARDALGDFPNEANAQRYNQLMQEHFREFPDSHPAMREQGLAYFRYFVSETGLAARNQPQRPTTLAALLAAGHLSAEPLVYEDFLPVSAAGIFQSNLGDDSQSHYAGQSNRQAFEAALGRPTLDELQLYAQTQQRSLEHCAATLGLPALLEHHHHHH” as the sequence, how does the “soluble on expression in E. coli” value read?
Answer: not soluble

Question: For “MKFSIIVPSYNSEKYIAELLNSLQNQSYDKKDFEVILVDDCSSDNTLNVVEAYKNKLNLIIKQLDTNSGGPGKPRNTALQLAQGEYVFFVDSDDYINKDTLKDVSKFVDQNHADVVLVKMEGVNGRGVPKSMFKETSDAVTLANSRIIYTLSPTKFYRTSLLRDHAIEFPEDLRSAEDQLFTMKAYVNAKRIAVLADKPYYYATKREGEHMSSAYVSPEDFYKVMSLITEEILNSPLENKNEVLGYFIDRHFSFSRTNNFSLKIADDKKEAWMDALGDFIQKVPTVVDELVNDSFKPLLHYARLKDMKHYQMVEESYKNGKFHSYSAQEGTLKIQFDEGEPYFVFKKLVKPDIRMSHFEFNDQGFELELEFISSIINPNHVASMIQLKLLSRNKKEFIYIPLTMNDQTRFKFKADLNDLMPYLIKEKVWDAHLEMRVDNMTIEKRIGNKRVKYPYSKETSTITQYNNQYYRFTPYFTKDFDNLSFYITSNKLNEMLAVEIKDKQTIQLRSLEFNYILSEGMTAVILPHMFTYGYLTSVTTKDTLTYHLSVGEKVKDKDLKKNFKIETPHLVLKYLEHHHHHH”, which “soluble on expression in E. coli” value is on record?
Answer: soluble
